In the supplement of paper PMC10126150:
± gives the standard deviation of the averaged measurements.

These sequences were tested on ATP (assay: switch fluorescence ratio, 500 uM ATP over buffer (Cy3 cluster intensity, sum of 5 cycles each) (fold (ratio)); higher = stronger signal-on switching upon ATP binding; sequences stand for … in TCGTCGGCAGCGTCAGATGTGTATAAGAGACAGTTTTTTTTTTTTTTTTTTTTTTTTT…TC). Settings: aptamer strand: ATP DNA aptamer (quencher-CACCTGGGGGAGTATTGCGGAGGAAGG + anchor), 100 nM annealed; ATP concentration: 500 uM.
How it was run: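 The fluorescence ratio divides summed target-cycle Cy3 intensity by summed buffer-cycle Cy3 intensity for each cluster and is averaged per switch-domain sequence. Cy3-labelled switching-strand clusters on a modified Illumina MiSeq flow-cell were annealed to 100 nM quencher-labelled ATP aptamer, then imaged in selection buffer and again after 15 min with 500 uM ATP at 22 °C. Five such cycles were run, with NaOH stripping and re-annealing between them, and clusters outside 100-1000 RFU were excluded.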
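Also: ATP exposure 15 min at 22 °C before imaging.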

Row | Sequence | switch fluorescence ratio
1 | TTGCTGTTAG | 0.995 ± 0.0074
2 | TAAGAAAAAA | 1.017 ± 0.0075
3 | GCTTAAGGCT | 1 ± 0.022
4 | CGGGGGATTG | 0.988 ± 0.014
5 | GGATCGGATT | 0.979 ± 0.023
6 | GATGAGTGGT | 0.979 ± 0.02
7 | TGTGGGGCAA | 1.05 ± 0.019
8 | AAGGGGCTTT | 1.01 ± 0.025
9 | AGTGGGAGGG | 1 ± 0.02
10 | TAAAGGGGCG | 1.01 ± 0.031
11 | GGTAATATTT | 0.998 ± 0.031
12 | TTTAGTATGT | 1.013 ± 0.0025
13 | AGATGAGATA | 1.005 ± 0.0037
14 | TGGGATGCAG | 1.01 ± 0.065
15 | TTTCCAAAAT | 0.991 ± 0.026
16 | GTTCTAGGTT | 0.9961 ± 0.0044
17 | CGGTATGATC | 1.02 ± 0.022
18 | TATAAGAAAA | 0.978 ± 0.013
19 | GCTATAGAAT | 1.01 ± 0.028
20 | CATGGAGGTC | 1.03 ± 0.026
21 | GAGTGAGTAC | 1 ± 0.055
22 | GTTGATCTGG | 1.01 ± 0.011
23 | TATCACAGTT | 1.01 ± 0.035
24 | TCCTGTGGGA | 1.007 ± 0.0053
25 | TCGAAGCCGG | 0.9774 ± 0.0061

Row | Sequence | switch fluorescence ratio
26 | AGGGGGTTT | 1.02 ± 0.024
27 | AATAGGGTGT | 1.07 ± 0.046
28 | TTTTAATCGT | 0.985 ± 0.063
29 | ATGTAGGGTC | 1.02 ± 0.02
30 | GATGGGCGGT | 0.9773 ± 0.0094
31 | ACCATCGGGA | 1.01 ± 0.016
32 | AAGGGGGACT | 1.04 ± 0.039
33 | TGGGCAGGCT | 0.998 ± 0.044
34 | CAATGGAGGC | 0.976 ± 0.072
35 | TTTTTGTGCT | 0.996 ± 0.032
36 | TAGTTGGAAG | 1.021 ± 0.0048
37 | AGATTTAGGG | 0.986 ± 0.017
38 | GAATGGGTAT | 0.979 ± 0.026
39 | TGTTTGTGAG | 1 ± 0.045
40 | TAAAGTTAGG | 1 ± 0.011
41 | ATCATTGGTA | 1 ± 0.023
42 | TAACTGTTCC | 1.12 ± 0.11
43 | AGTAAGAGAA | 0.995 ± 0.023
44 | GCGTAAAGGG | 0.99 ± 0.043
45 | GATTTACATT | 1.019 ± 0.0024
46 | TGCCGTTTGC | 0.965 ± 0.029
47 | TCGGCAATTT | 1.4 ± 0.34
48 | TCGTTAATGA | 1.02 ± 0.02
49 | CGGAGTTGGA | 1.04 ± 0.041
50 | TTGTTGAGGC | 1.06 ± 0.1

Row | Sequence | switch fluorescence ratio
51 | GACGACTGAG | 0.999 ± 0.087
52 | GCTTTATAGG | 1 ± 0.016
53 | AGGATCTTGT | 0.9943 ± 0.0016
54 | GCCAGTGCTG | 1.017 ± 0.0069
55 | TAATGGGGTC | 0.9801 ± 0.0029
56 | CGATATATTA | 0.9874 ± 0.0053
57 | TTACCGAGGT | 1.03 ± 0.031
58 | GGTAGTCCGT | 1.03 ± 0.016
59 | AAGATGGTCA | 0.993 ± 0.036
60 | AGATACGGTG | 0.983 ± 0.044
61 | ATATGCGGCG | 1.02 ± 0.073
62 | GTTTTCTCAT | 0.989 ± 0.029
63 | ATCGTGCACA | 0.973 ± 0.036
64 | TTTTAAGCTG | 1.05 ± 0.024
65 | GCTAAAGGTA | 0.986 ± 0.011
66 | TGTGGTGGGG | 0.996 ± 0.042
67 | CGTTGGCGTG | 0.947 ± 0.036
68 | GACAGTCGGC | 0.9669 ± 0.0067
69 | CGTTCTGGGG | 0.984 ± 0.05
70 | CCATGTGTGC | 1.02 ± 0.027
71 | TGCGTGGGGT | 1.01 ± 0.022
72 | TTTATTATGA | 1.01 ± 0.026
73 | TGTGGGTGAG | 1 ± 0.02
74 | ACTATTGCCA | 1.04 ± 0.017
75 | GATTTATAGG | 0.972 ± 0.052

Row | Sequence | switch fluorescence ratio
76 | AGGCATCAAC | 1.02 ± 0.013
77 | GCTTTAGTTC | 1.03 ± 0.003
78 | TTAAGGCGGA | 1.04 ± 0.023
79 | AGCGCAATGA | 3 ± 0.32
80 | ATCCGGTTCG | 0.9946 ± 0.0095
81 | TGTCTTTATT | 0.988 ± 0.016
82 | GGGGGGCGAT | 1.03 ± 0.049
83 | AATACGTTAG | 1.01 ± 0.027
84 | GGTGGGCAAT | 1.11 ± 0.045
85 | ATGGCTTGTA | 0.999 ± 0.01
86 | ATTTGCGGCT | 0.958 ± 0.062
87 | GGCACGGGGG | 1.02 ± 0.008
88 | ATTGATGGCG | 0.982 ± 0.06
89 | TTCACTGGGA | 0.9962 ± 0.00098
90 | GGGGGATTCT | 1.02 ± 0.011
91 | ACTTGAGGAT | 1 ± 0.017
92 | CGTTTGACCT | 1.03 ± 0.026
93 | TTATCGATAG | 0.985 ± 0.019
94 | TGGAGAGGTC | 0.999 ± 0.022
95 | TACGGGAATT | 1.04 ± 0.023
96 | AGTGGGGTGG | 0.982 ± 0.043
97 | ATTTTGGGGC | 1.03 ± 0.018
98 | GTCAGGGTAC | 1.09 ± 0.072
99 | CCTGCTTTTT | 1.02 ± 0.021
100 | CGTACATTTA | 1.03 ± 0.051

Row | Sequence | switch fluorescence ratio
101 | CAGGACTTAT | 1.02 ± 0.064
102 | TCGGGAATTT | 1.067 ± 0.0091
103 | ACGGTACTGT | 1.4 ± 0.045
104 | CAGGAGGACT | 1.02 ± 0.015
105 | CTGTATTCAC | 1.04 ± 0.033
106 | GGGATTAAAG | 1.02 ± 0.017
107 | CGAGGGGGG | 0.997 ± 0.015
108 | TACACTGAAT | 1.01 ± 0.038
109 | ACTTAAGGTC | 1.001 ± 0.0035
110 | TCTTGAACGT | 0.978 ± 0.018
111 | GCTCGAATTA | 1.02 ± 0.016
112 | ACAGTTGGGC | 0.9946 ± 0.004
113 | TCTGGAGGGG | 1.022 ± 0.0073
114 | TTGGGCAGGG | 0.982 ± 0.036
115 | AGTGTACGGG | 1.083 ± 0.0077
116 | ACGTGGGGGG | 1.04 ± 0.082
117 | TTTTGATGCG | 0.982 ± 0.031
118 | AACTACTTTG | 1 ± 0.03
119 | TGATGGGGTG | 0.99 ± 0.012
120 | GGCGGGACCG | 0.959 ± 0.03
121 | ATTTGTGGTT | 0.9752 ± 0.0085
122 | CACTGGCGAT | 1.06 ± 0.054
123 | ATATGAAGAG | 0.99884 ± 9.2e-05
124 | GCTCAAGTGC | 1.07 ± 0.032
125 | ATTGTTATTA | 1.028 ± 0.0035

Row | Sequence | switch fluorescence ratio
126 | CGCTTATATC | 2.8 ± 0.32
127 | TCTCGGAAAA | 0.996 ± 0.021
128 | GTGTGGCGGG | 0.996 ± 0.011
129 | ATTGGGTTCT | 0.991 ± 0.057
130 | AACCATTTGG | 0.9825 ± 0.0046
131 | TCGCATTGGT | 1.24 ± 0.037
132 | ATAGAGTTCT | 0.997 ± 0.041
133 | ACTGTTAGAT | 1.02 ± 0.054
134 | GCGGGTCAGC | 1.01 ± 0.012
135 | GATGGAAACT | 1.008 ± 0.0072
136 | AGCCCGAGGG | 0.989 ± 0.065
137 | ATGAAGACTA | 0.9962 ± 0.0014
138 | TCGGCGAAAA | 1.84 ± 1.1
139 | CGGTCTGGGG | 0.981 ± 0.027
140 | AATTTGGTAT | 1.04 ± 0.011
141 | ATGGGTGTCG | 1.05 ± 0.015
142 | AACGTGTACG | 1.01 ± 0.065
143 | TCATTTAGGG | 0.9893 ± 0.0081
144 | GGGATAGTGG | 0.979 ± 0.03
145 | TTATCTCTGT | 0.999 ± 0.022
146 | GGCTATCGGG | 1.02 ± 0.046
147 | TTTGCTACGT | 1.01 ± 0.051
148 | GGGGAAAAAA | 1.06 ± 0.14
149 | TTTGGAATCG | 1.01 ± 0.046
150 | TGGCTTACAG | 1.003 ± 0.0022

Row | Sequence | switch fluorescence ratio
151 | AATCTTGGGC | 0.9771 ± 0.0096
152 | ATAAGGCCTG | 1.03 ± 0.075
153 | TTTACTTAGT | 1.02 ± 0.018
154 | TGGGGATCCG | 1.016 ± 0.0095
155 | AGTTTTTGAG | 1 ± 0.013
156 | GGTTTTTGAG | 0.9564 ± 0.0045
157 | TTGATTTGTC | 0.988 ± 0.011
158 | ATGCAGAATT | 0.988 ± 0.017
159 | TTTCTAGTTT | 0.984 ± 0.026
160 | ACAAAGGTGT | 1.29 ± 0.015
161 | CTGGAAGCTA | 1.6 ± 0.1
162 | GTTTGGGAAA | 0.988 ± 0.036
163 | AGTTTGATAT | 0.999 ± 0.017
164 | TAAGGGATGG | 0.973 ± 0.043
165 | GTCGGATAGT | 0.996 ± 0.013
166 | TTAATATGGT | 0.99 ± 0.04
167 | ACTGGGGTAG | 1.02 ± 0.061
168 | ATATTATGGG | 0.9979 ± 0.0095
169 | ACATGCATTA | 1.02 ± 0.026
170 | TGAATTTTAA | 0.995 ± 0.042
171 | CGGTATTGTG | 0.968 ± 0.028
172 | AGGCAAAGCA | 1.05 ± 0.073
173 | TCATGGGCTT | 1.01 ± 0.0059
174 | AGAGGCTGAT | 0.983 ± 0.014
175 | TCCCTATCAC | 1.1 ± 0.042

Row | Sequence | switch fluorescence ratio
176 | CGTGTTGTTG | 1.02 ± 0.022
177 | GGTCCGATCG | 0.9694 ± 0.0045
178 | TTTGTGCGCA | 1.07 ± 0.08
179 | TAGAGGTATG | 1.01 ± 0.028
180 | GCAGGAAATT | 0.973 ± 0.014
181 | TTTTATGTTT | 1 ± 0.019
182 | TCTTGGTCGT | 0.9677 ± 0.0051
183 | TGTGGTGCGA | 0.995 ± 0.029
184 | GGCAGTATTT | 1.0371 ± 0.00098
185 | TGTTTCCGTG | 0.9766 ± 0.0027
186 | ACCTAGCTTC | 1.12 ± 0.05
187 | ACAAGGGGGA | 1.02 ± 0.013
188 | TAATAGTTAC | 1.01 ± 0.041
189 | GCATTGTAGG | 0.972 ± 0.041
190 | CAGGGTGTGC | 1.012 ± 0.00054
191 | ACGGGAAGGG | 1.05 ± 0.03
192 | TTTGAGGTAG | 0.98 ± 0.019
193 | ACCCGTAAGA | 1.22 ± 0.093
194 | GAAATAAAAG | 0.9796 ± 0.0064
195 | CGGCTGTATG | 0.988 ± 0.035
196 | ATTGTGGTCA | 0.999 ± 0.017
197 | ATAGTGGGGA | 1.04 ± 0.026
198 | TTCACTGATG | 1.05 ± 0.017
199 | ATATATATCG | 1.01 ± 0.0093
200 | GGGGATGGTA | 0.978 ± 0.025
